Results on 3 substances are retold here after US20190040149A1.

The target in one experiment is cyno PD-1_Fc (cyno). The experiment in a line: bio-layer interferometry (ForteBio), Fab in solution, cyno PD-1_Fc on sensor tip. A general note: Biolayer interferometry detects binding as a change in optical thickness at a sensor tip.
Experiment [1] concerns the target human PD-1 on cells (CHO cells; T cells in the mixed lymphocyte reaction) (human) (UniProt Q15116). In words: cell-based or functional assay.
Experiment [2] has the same target. The experiment in a line: flow cytometry, remaining PD-L2-FITC signal after 100 nM IgG; competitor PD-L2-FITC.

human PD-1 on cells (CHO cells; T cells in the mixed lymphocyte reaction) (human), sequence (Q15116 25-288 limits assumed): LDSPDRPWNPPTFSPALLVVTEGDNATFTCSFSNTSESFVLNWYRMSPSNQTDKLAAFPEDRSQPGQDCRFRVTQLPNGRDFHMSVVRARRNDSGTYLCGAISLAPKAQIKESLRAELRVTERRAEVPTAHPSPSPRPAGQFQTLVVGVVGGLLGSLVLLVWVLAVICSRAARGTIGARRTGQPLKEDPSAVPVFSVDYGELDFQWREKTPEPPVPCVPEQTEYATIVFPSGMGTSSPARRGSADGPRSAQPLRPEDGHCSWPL
Fab of pembrolizumab, sequence (VH): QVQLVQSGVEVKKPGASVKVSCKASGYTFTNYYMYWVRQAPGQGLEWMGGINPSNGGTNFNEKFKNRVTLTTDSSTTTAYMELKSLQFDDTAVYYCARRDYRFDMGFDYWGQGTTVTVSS
Fab of pembrolizumab, sequence (VL): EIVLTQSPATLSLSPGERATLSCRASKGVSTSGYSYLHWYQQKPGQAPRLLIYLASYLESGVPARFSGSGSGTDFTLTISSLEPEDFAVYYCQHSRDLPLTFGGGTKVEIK

A word on the Kd: it is the equilibrium constant for the complex coming apart. In the experiment with cyno PD-1_Fc (cyno), Fab of pembrolizumab returned a Kd of 0.47 nM.
In experiment [1], IgG Control (antibody) gave an IFNγ in supernatant, 0.01 nM IgG (IgG control, baseline of the fold change) of 14900 pg/mL; an IFNγ in supernatant, 0.1 nM IgG (IgG control, baseline of the fold change) of 11000 pg/mL; an IFNγ in supernatant, 1 nM IgG (IgG control, baseline of the fold change) of 11600 pg/mL; an IFNγ in supernatant, 10 nM IgG (IgG control, baseline of the fold change) of 13500 pg/mL. In experiment [1], this substance returned an IFNγ in supernatant, 100 nM IgG (IgG control, baseline of the fold change) of 14900 pg/mL; an IL-2 in supernatant, 0.01 nM IgG (IgG control, baseline of the fold change) of 515 pg/mL; an IL-2 in supernatant, 0.1 nM IgG (IgG control, baseline of the fold change) of 509 pg/mL; an IL-2 in supernatant, 1 nM IgG (IgG control, baseline of the fold change) of 500 pg/mL. Also, in experiment [1], the IL-2 in supernatant, 10 nM IgG (IgG control, baseline of the fold change) was 522 pg/mL and the IL-2 in supernatant, 100 nM IgG (IgG control, baseline of the fold change) came out at 619 pg/mL. The substance further came in with an MFI (PD-L2-FITC) in experiment [2] of 183000 MFI.
In the experiment with cyno PD-1_Fc (cyno), Fab of nivolumab gave a Kd of 1.2 nM.
